The nature of assay [1]: M. smegmatis aryl esterase constructs, peracetic acid in solution (Example 10). It is filed as biochemical. The settings on record: 0.5 μM enzyme, 100 mM triacetin, 100 mM H2O2, pH 7.2, 30 min, 37° C.; no enzyme 158. How it is done: (§1) The detection of peracetic acid followed the method described in Pinkernell et. al. (Analyst, 1997, 122, 567) using colorimetric detection of 2,2′-azino-bis(3-ethylbenzothiazoline(-6-sulfonate (ABTS) oxidation by peracetic acid. Following the formation of peracetic acid with the addition of triacetin and hydrogen peroxide, 90 μL of solution was added to 10 μL of 0.1 M H3PO4 in a well plate. 50 μL of 1 M acetic acid, 50 μL of 0.5 g/L ABTS and 50 μL of 0.002 g/L of KI was added. The solution was allowed to develop for 5 min. The absorbance of the solution was measured at 405 nm using a microplate reader. The peracetic acid concentration was calculated based on a standard curve developed simultaneously using peracetic acid reagent solution.
For aryl esterase constructs, the enzyme activity in solution was measured by making a 1 mL solution of 0.5 μM of each enzyme, 100 mM triacetin, and 100 mM H2O2 in 100 mM phosphate buffer, pH 7.2. The solution was mixed and incubated for 30 min, at 37° C. As described in Example 7, the reaction was stopped by removing a portion to H3PO4 and a 10 μL aliquot was removed and diluted for detection via ABTS oxidation.

Assay [2] in a line: M. smegmatis aryl esterase constructs, peracetic acid when bound to hydroxyapatite particles (Example 10). It is filed as biochemical. The settings on record: 33 mg HAP particles exposed to 10 μM enzyme; 100 mM triacetin, 100 mM H2O2, 30 min, 37° C.; no enzyme 323. How it is done: as §1
For assessment of binding and activity on hydroxyapatite, the aryl esterase enzymes were exposed to hydroxyapatite particles as described in Example 8 using 33 mg of buffer washed HAP particles (Macro-prep Ceramic Hydroxyapatite TYPE I, 80 μm size BioRad, Hercules, Calif.) using a 10 μM solution in 10 mM phosphate buffer. Following centrifugation and removal of the enzyme solution, the particles were rinsed with phosphate butter by centrifuging and removing the supernatant. A 200 μL solution containing 100 mM triacetin, 100 mM H2O2 and 100 mM phosphate buffer, pH 7.2 was added to the particles and incubated at 37° C. for 30 min. As described in Example 7, the reaction was stopped by removing a portion to H3PO4 and a 10 μL aliquot was removed diluted for detection via ABTS oxidation.

Assay [3] in a line: Retention of perhydrolase on hydroxyapatite (SDS-PAGE band strength). It is filed as binding. The settings on record: relative to enzyme input = 1. In short, it runs like this: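 Enzyme at 10 μM final was incubated 30 min with 0.5% hydroxyapatite nanoparticles in 10 mM phosphate pH 7.2, then centrifuged and washed three times. Input, wash supernatants and particles were run on SDS-PAGE with Coomassie-type staining; band strength scored relative to input (=1).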

The nature of assay [4]: Two-step bleaching of coffee-tea stained bovine enamel (Example 16). As for the experimental part: Bovine enamel incisors were prepared as indicated in Example 1. The stained enamel blocks were embedded in a 48 well plate to protect the dentin backside from solution exposure. A solution of 10 μM of each enzyme in 10 mM phosphate buffer, pH 7.2 was prepared and 500 μL of solution was incubated with each enamel substrate for 60 min. The enzyme solution was removed and each well was rinsed three times with an additional 500 μL of buffer. The enamel blocks were placed in a fresh well for the whitening process. A solution with a final concentration of 40 mM triacetin, 100 mM H2O2 in 50 mM phosphate pH 7.2 buffer was freshly prepared and 500 μL of solution was added to each enamel block. Over the course of 1 hr the enamel blocks were removed and a color measurement was obtained and then each was returned to the solution in the well plate. The whiteness index for each sample was monitored.

A short description of assay [5]: T. maritima C277S/C277T constructs, peracetic acid in solution (Example 11). It is filed as biochemical. The settings on record: 0.5 μM enzyme, 100 mM triacetin, 100 mM H2O2, pH 7.2, 10 min, 37° C.; no enzyme 114. As for the experimental part: as §1
Perhydrolase enzymes listed in Table 5 were assessed for enzyme activity in solution as described in Example 7. The enzyme activity in solution was measured by making a 500 μl solution of 0.5 μM of each enzyme in 100 mM triacetin, 100 mM H2O2 and 10 mM phosphate buffer, pH 7.2. The solution was incubated for 10 min, at 37° C. After the reaction was stopped by mixing an aliquot with H3PO4, a 10 μL aliquot was removed for proper dilution, and then detected via ABTS oxidation as described in Example 7.

Assay [6] can be described thus: Perhydrolase activity in solution, ABTS detection of peracetic acid (Example 7). It is filed as biochemical. The settings on record: 10 μL of 0.625 μg/mL enzyme, triacetin, H2O2, pH 7.2, 5 min. How it is done:
as §1
The enzyme activity in solution was measured by making a solution of 0.625 μg/mL of each enzyme in 50 mM phosphate buffer, pH 7.2. 10 μL of enzyme solution was mixed with 90 μL buffer, 30 μL of 3% triacetin in water, 30 μL of 30 mM H2O2. The solution was incubated for 5 min. A 90 μL aliquot was removed for detection via ABTS oxidation as noted above.

Assay [7] can be described thus: Perhydrolase activity of enzyme bound to hydroxyapatite discs, ABTS (Example 7). It is filed as biochemical. How it is done: as §1
The perhydrolase activity of the fusions once bound to HAP discs surfaces was determined with the same ABTS method. Hydroxyapatite discs (HiMed Inc, Old Bethpage, N.Y.; 5 mm dia.×1.8 mm thick) were incubated in 20 μM enzyme solution (50 mM potassium phosphate buffer pH 7.2) for 60 min followed by 6 times of washes (50 mM potassium phosphate buffer pH 7.2). The discs with enzyme adsorbed were transferred to new wells and 200 μL of phosphate buffer (10 mM pH 7.2), 30 μL of 3% triacetin (final concentration of 0.346%) and 30 μL of 30 mM H2O2 (final concentration of 3.46 mM) were added. The solution was allowed to incubate at room temperature for 5 min. 90 μL of solution was pipetted to a new well containing 10 μL of 100 mM H3PO4. 50 μL of acetic acid, 50 μL KI, 50 μL ABTS were added as described above. The solution was developed for 5 min at room temperature and read at A405 nm.

A short description of assay [8]: T. maritima C277S/C277T constructs, peracetic acid when bound to bovine enamel (Example 11). It is filed as biochemical. The settings on record: bovine enamel exposed to 10 μM enzyme, 4 washes; 100 mM triacetin, 100 mM H2O2, 30 min, 37° C.; no enzyme 570. How it is done: as §1
The perhydrolase enzymes were also assessed for binding to bovine enamel substrates. Enamel substrates were prepared as described in Example 2 and 3. Each enamel block was hydrated in water for overnight at room temperature (˜22° C.). The enamel blocks were then equilibrated with 10 mM potassium phosphate buffer, pH7.2, for 10 min. The enamel substrates were rinsed 3 times the buffer. The enamel wells were filled with 500 μL of 10 μM enzyme solutions which was prepared by diluting in 10 mM phosphate buffer. The samples were incubated for 30 min with slow shaking at 37° C. The non-binding enzyme was removed by washing 4 times with phosphate buffer. Then, each enamel block was embedded inside a putty filled 24-well plate, with only the enamel top surface exposed. The perhydrolase activity from enamel bound enzyme was measured as described in Example 8. 100 μL reaction mixtures (100 mM phosphate buffer, pH7.2 and 100 mM H2O2 and 100 mM triacetin) was added on top of the enamel and incubated for 30 min at 37° C. A 90 μL aliquot was removed for detection via ABTS oxidation as noted in Example 8. Each sample data point represents an average of 3 independent enamel blocks.

Assay [9] is described as follows: P. fluorescens perhydrolase constructs, peracetic acid when bound to hydroxyapatite particles (Example 10). It is filed as biochemical. The settings on record: 100 mg HAP particles exposed to 20 μM enzyme; 300 mM H2O2, 1 M sodium acetate pH 5.5, 10 min, 37° C.; no enzyme 17. As for the experimental part:
as §1
For P. fluorescens constructs, the solution activity was measured by mixing a 1 mL solution containing 2 μM enzyme, 100 mM H2O2 in a 1 M sodium acetate buffer, pH 5.5. The solution was incubated at 37° C. for 30 min. As described in Example 7, the reaction was stopped by removing a portion to H3PO4 and a 10 μL aliquot was removed and diluted for detection via ABTS oxidation. For assessment of binding and activity on hydroxyapatite, the P. fluorescens enzymes were exposed to hydroxyapatite particles at 20 μM in 10 mM phosphate buffer as described in Example 8 using 100 mg of buffer washed HAP particles (Macro-prep Ceramic Hydroxyapatite TYPE I, 80 μm size BioRad, Hercules, Calif.). Following centrifugation and removal of the enzyme solution, the particles were rinsed with phosphate butter by centrifuging and removing the supernatant. A 200 μL solution containing 300 mM H2O2 in 1 M sodium acetate buffer, pH 5.5 was added to the particles and incubated at 37° C. for 10 min. As described in Example 7, the reaction was stopped by removing a portion to H3PO4 and a 10 μL aliquot was removed and diluted for detection via ABTS oxidation.

B1: EZ-39: ArE-link1-(GK)5-H6, SEQ ID NO: 463 (protein)
chain: MAKRILCFGDSLTWGWVPVEDGAPTERFAPDVRWTGVLAQQLGADFEVIEEGLVARTTNIDDPTDPRLNGASYLPSCLATHLPLDLVIIMLGTNDTKAYFRRTPLDIALGMSVLVTQVLTSAGGVGTTYPAPKVLVVSPPPLAPMPHPWFQLIFEGGEQKTTELARVYSALASFMKVPFFDAGSVISTDGVDGIHFTEANNRDLGVALAEQVRSLLGPGSGGAGSPGSAGGPGSGKGKGKGKGKHHHHHH
As to B1, the “Peracetic acid (ppm) In Solution” value in [1] is reported as 1366 ppm. The “Peracetic acid (ppm) On Hydroxyapatite” value in assay [2] is on record as 3553 ppm.

B2: EZ-37: ArE-link1-H6, SEQ ID NO: 461 (protein)
chain: MAKRILCFGDSLTWGWVPVEDGAPTERFAPDVRWTGVLAQQLGADFEVIEEGLVARTTNIDDPTDPRLNGASYLPSCLATHLPLDLVIIMLGTNDTKAYFRRTPLDIALGMSVLVTQVLTSAGGVGTTYPAPKVLVVSPPPLAPMPHPWFQLIFEGGEQKTTELARVYSALASFMKVPFFDAGSVISTDGVDGIHFTEANNRDLGVALAEQVRSLLGPGSGGAGSPGSAGGPGSHHHHHH
With B2, in assay [2], the “Peracetic acid (ppm) On Hydroxyapatite” value was 927 ppm.

B3: EZ-5: C277S-link1-(GK)5-H6, SEQ ID NO: 428 (protein)
chain: MAFFDLPLEELKKYRPERYEEKDFDEFWEETLAESEKFPLDPVFERMESHLKTVEAYDVTFSGYRGQRIKGWLLVPKLEEEKLPCVVQYIGYNGGRGFPHDWLFWPSMGYICFVMDTRGQGSGWLKGDTPDYPEGPVDPQYPGFMTRGILDPRTYYYRRVFTDAVRAVEAAASFPQVDQERIVIAGGSQGGGIALAVSALSKKAKALLCDVPFLCHFRRAVQLVDTHPYAEITNFLKTHRDKEEIVFRTLSYFDGVNFAARAKIPALFSVGLMDNISPPSTVFAAYNYYAGPKEIRIYPYNNHEGGGSFQAVEQVKFLKKLFEKGGPGSGGAGSPGSAGGPGSGKGKGKGKGKHHHHHH
Turning to B3, the “Unbound (relative band strength)” value in assay [3] (10 μM enzyme, 0.5% hydroxyapatite, pH 7.2) is 0.2. Further, in assay [3] (enzyme retained on particles after washes), the “HAP Particles (relative band strength)” value was 0.7. Besides, in [3], the “Wash1 (relative band strength)” value stood at 0.05 and the “Wash2 (relative band strength)” value amounted to 0.05. The “Whiteness Index 0 min” value in assay [4] (two-step: 10 μM enzyme 60 min, rinsed, then 40 mM triacetin, 100 mM H2O2, pH 7.2, before step 2) was −135.8. In [4] (two-step, 0 to 60 min), this molecule displayed a ΔWI of 93.2. Moreover, the “Whiteness Index 5 min” value in assay [4] (two-step, 5 min in triacetin/H2O2) is −129.8. Further, in [4] (two-step, 15 min in triacetin/H2O2), the “Whiteness Index 15 min” value is recorded as −97.4. In [4] (two-step, 30 min in triacetin/H2O2), the “Whiteness Index 30 min” value is on record as −65.1. Moreover, the “Whiteness Index 45 min” value in assay [4] (two-step, 45 min in triacetin/H2O2) is −49.9. Further, the “Whiteness Index 60 min” value in assay [4] (two-step, 60 min in triacetin/H2O2) is listed as −42.7. For the same molecule, the “Peracetic acid (ppm) In Solution” value in [5] is recorded as 3956 ppm. Moreover, the “Avg Absorbance 405 nm Background subtracted” value in [6] was 1.658. Besides, the “Avg Absorbance Background subtract” value in assay [7] (background = no enzyme, no HAP (0.775)) turned out to be 1.379. Besides, the “Avg Absorbance at 5 min” value in assay [7] (discs incubated in 20 μM enzyme, 6 washes, 0.346% triacetin, 3.46 mM H2O2, A405) is 2.154. The “PAA conc μM per disc” value in [7] (enzyme bound to hydroxyapatite disc, 5 min, no enzyme control 1.2) is 49.7 μM per disc. The “activity when bound to hydroxyapatite (in words)” value in assay [7] (with addition of triacetin and hydrogen peroxide) is “active enzymes when bound to hydroxyapatite”. Besides, the “Peracetic acid (ppm) On Enamel” value in assay [8] is on record as 1344 ppm.

B4: EZ-41: Pfl-link1-H6, SEQ ID NO: 465 (protein)
chain: MSTFVAKDGTQIYFKDWGSGKPVLFSHGWPLDADMWEYQMEYLSSRGYRTIAFDRRGFGRSDQPWTGNDYDTFADDIAQLIEHLDLKEVTLVGFSMGGGDVARYIARHGSARVAGLVLLGAVTPLFGQKPDYPQGVPLDVFARFKTELLKDRAQFISDFNAPFYGINKGQVVSQGVQTQTLQIALLASLKATVDCVTAFAETDFRPDMAKIDVPTLVIHGDGDQIVPFETTGKVAAELIKGAELKVYKDAPHGFAVTHAQQLNEDLLAFLKRGPGSGGAGSPGSAGGPGSHHHHHH
Take B4: in assay [9], the “Peracetic acid (ppm) On Hydroxyapatite” value is 18 ppm.
